The source of these data is paper doi:10.1101/758797 (bioRxiv, 2019).

The test addresses VPS15 (human, UniProt Q99570 1-1358). As to the kind of experiment: cryo-EM structure.

Chain of VPS15 (Q99570 whole entry): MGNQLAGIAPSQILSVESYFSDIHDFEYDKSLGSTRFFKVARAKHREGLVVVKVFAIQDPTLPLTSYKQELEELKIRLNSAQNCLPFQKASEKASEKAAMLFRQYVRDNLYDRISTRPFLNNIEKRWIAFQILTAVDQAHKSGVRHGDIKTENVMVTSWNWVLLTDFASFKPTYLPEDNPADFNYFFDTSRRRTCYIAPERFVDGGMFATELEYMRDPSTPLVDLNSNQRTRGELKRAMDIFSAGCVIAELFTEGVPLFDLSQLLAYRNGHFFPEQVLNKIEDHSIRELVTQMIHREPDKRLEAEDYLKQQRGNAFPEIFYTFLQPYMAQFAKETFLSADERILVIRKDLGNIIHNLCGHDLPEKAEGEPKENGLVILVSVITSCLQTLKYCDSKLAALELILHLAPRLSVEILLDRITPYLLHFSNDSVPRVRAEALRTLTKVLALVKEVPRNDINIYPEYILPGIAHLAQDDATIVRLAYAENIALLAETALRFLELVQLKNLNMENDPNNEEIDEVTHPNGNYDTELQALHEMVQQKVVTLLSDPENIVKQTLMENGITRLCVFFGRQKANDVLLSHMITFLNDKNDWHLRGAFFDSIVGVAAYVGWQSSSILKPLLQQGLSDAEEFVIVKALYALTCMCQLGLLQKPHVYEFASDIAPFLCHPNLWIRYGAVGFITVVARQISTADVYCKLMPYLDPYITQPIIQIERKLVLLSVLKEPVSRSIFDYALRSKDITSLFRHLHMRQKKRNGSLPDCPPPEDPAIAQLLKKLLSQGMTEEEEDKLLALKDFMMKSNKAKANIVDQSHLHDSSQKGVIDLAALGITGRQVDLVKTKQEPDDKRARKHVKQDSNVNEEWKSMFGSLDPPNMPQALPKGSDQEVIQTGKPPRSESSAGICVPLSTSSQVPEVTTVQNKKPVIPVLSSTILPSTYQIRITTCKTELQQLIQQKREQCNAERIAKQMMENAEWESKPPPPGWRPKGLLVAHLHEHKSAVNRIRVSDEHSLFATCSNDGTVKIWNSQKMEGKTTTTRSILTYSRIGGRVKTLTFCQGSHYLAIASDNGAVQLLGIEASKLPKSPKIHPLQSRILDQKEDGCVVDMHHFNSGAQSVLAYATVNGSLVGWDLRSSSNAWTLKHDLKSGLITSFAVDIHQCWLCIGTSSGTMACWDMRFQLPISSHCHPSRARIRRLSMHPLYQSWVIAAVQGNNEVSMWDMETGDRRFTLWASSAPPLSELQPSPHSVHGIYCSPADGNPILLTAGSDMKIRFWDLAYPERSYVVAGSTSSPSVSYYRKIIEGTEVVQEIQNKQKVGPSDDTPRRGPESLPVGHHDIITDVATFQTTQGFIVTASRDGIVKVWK

B1: NRBF2^MIT as fused in MIT-Fusion (NRBF2 residues 1-159, S113A, S120A) (domain or fragment)
chain: MEVMEGPLNLAHQQSRRADRLLAAGKYEEAISCHKKAAAYLSEAMKLTQSEQAHLSLELQRDSHMKQLLLIQERWKRAQREERLKAQQNTDKDAAAHLQTSHKPSAEDAEGQAPLSQKYAPSTEKCLPEIQGIFDRDPDTLLYLLQQKSEPAEPCIGSK
B1: the binding result is recorded as “binds”.
